The values below come from article PMC7717565 (PLoS Biology, 2020).

The experiment deals with Rabbit skeletal muscle α-actin, filamentous (F-actin) (rabbit, UniProt P68135 1-377). As to conditions: both partners purified.

B1: E16R Lifeact–mCherry (peptide)
chain: MGVADLIKKFESISKRE
notes: One of the plasmids 2479, 2556, 2557, 2558; also called E16R Lifeact variant; source: E. coli BL21-CodonPlus(DE3)-RIPL, purified (Protino Ni-IDA resin, dialysis)
Broadly, the Kd is a measure of binding affinity in units of concentration. A lower Kd goes with tighter binding. As to B1, binding was characterised by a dissociation constant (Kd) of 6 ± 0.7 µM.

B2: E17K Lifeact–mCherry (peptide)
chain: MGVADLIKKFESISKEK
notes: Lifeact (17 N-terminal residues of yeast ABP140) with E17K, fused to mCherry; One of the plasmids 2479, 2556, 2557, 2558; also called E17K variant of Lifeact; source: E. coli BL21-CodonPlus(DE3)-RIPL, purified (Protino Ni-IDA resin, dialysis)
B2 registered a Kd of 8.1 ± 0.6 µM. This Kd and that of the molecule before are within 1.5-fold of each other.
